The text below walks through data of the DeepSol protein solubility set.

A short description of this data set: soluble on expression in E. coli; label from the status in PepcDB or PDB records.
For “GPGSMSADKVVIIGAGPTGLGAAVRLMELKHANFHLYDGGTVPGGLSRSVLDDKGFLWDMGGHVIFSHYAYFDDVMNLAISDWNTLQRESWVRCSGAWVPYPFQSNIHRLPPEVRDTCLKGIEEAEAARSVAAPEKPQNFAEYVSRHFGEGIAEVFMRPYNFKVWAVPLHLMSTEWVGERVAAVNVERIRENIQLKRDDVGWGPNATFRFPKSGGTGAIYKAVWKMIPEAHKTLGPQCRVTKVNPITKTLTMANGEAVSYDALVSTMPLDDLLLAVAAGVEEDAETASASALKAPRLREIADKMVYSSTHIIGIGVKGCPPPEMRTACWLYFPEDGIPFYRATIFSRYADTNAPEGHWSILLEVSQNVLYKPVNVDTIVEDCIAGLRTVTLLRPEDEIVSRWHHMEKKGYPIPFVGRNELLEEVQPVLRDKYQIYSRGRFGAWRYEVANQDHSLMQGVEAVGHIFYGTDEDTVHKPEKVNTRRGEMRCTWSSTAS”, the “soluble on expression in E. coli” value was “soluble”.
For “TTCCPSIVARSNFNVCRLPGTPEALCATYTGCIIIPGATCPGDYAN” the value was “soluble”.
Then “MLGGNNDNPVPQVLMNDSQFRYQSNTSLNQLHLLGTMRAGCTIDPVNYFANDNLAPMMRLNSTRGRETENNNIMQRQQKLQISLNYNYNNNNTVVQDEVPKQNLVSTGLRLSYDDDERNSSVTSANGSITTPVYQSLGDNIRLDLNRQNDELDQFIKFRADQMAKGVRDIKQRHVTSFVTALEKDVSKKLQEKDHEIESMNKKNRELVDKIKQVAVEAQNWHYKAKYNESVVNALKVNLQQVMSHGNDNNAVGGGVADHHQMKEGFGDSEIDDEAASYNYLNIPGMPSTGMRCKLCNVKNVSVLLVPCRHLSLCKDCDVFTGVCPVCQSLKTSSVQVFFF”, with “soluble”; and “MGLFDRLRAGLAKTRERLLKAIPWGGDPEEVLEELEMALLAADVGVAATEELLKEVRASGRRDLKEVVKEKLVQMLEPDERRATLRKLGFRPQKLRPVEPQGHVVMVVGVNGVGKTTTIAKLGRLYQGLGKKVLFCAGDTFRAAGGAQLAEWGKRLGIPVIQGPEGADPAALAFDAAKARRARGLDLLFVDTAGRLHTKQGLMEELKKVKRAIAKADPGEPGEVWLVLDAVTGQNGLEQAKRFHEAVGLTGVIVTKLDGTAKGGVLVPIVRTLKVPIRFIGVGEGPDDLQPFDAEAFVEALLEA”, with “soluble”; and “MKDFVKGRKIYTRTYNKCDPSLVVVERAKRRLGETKYNPFYNNCEHFARYCKVGIPISDQVENYKSLVGNSGIDASDALLNNGKSIVDTTQNLMKTTLDKISNFWKNDNDDDDGFFEYYLEHHHHHH”, with “not soluble”.
Then “MTKPIVFQNARIIDPSRTIDEIGTVIVENGLIIAAGKEALNQGIPEGAEIINAQNKAILPGLVDARVFVGEPGNESRETLASASQSAAAGGITSFLMMPNTNPVIDNIALVKFITHTAQEISSVNIYPVAAITQGFNGQEIAEFGLLKDAGAVAFSEGKKTLQNSSVMRRAMTYARDFDVPLMHETQDKDLIGQGVMNEGLLASWLGLSGIPREAEVIPLERDLRLAALTQTRYHAAQISTALSADALRLSKQRSEKISAGVSINHLSFNENDIGEYRTSFRLIPPLRTEEDRIAMIEAIKDGTVDIIVSSHDPQSLDKKNLPFSEAAIGAIGMETLLSAALRLYHNGTISLLRLTELLSTTPAKLFDLNAGTLRKGTHADLILVDLDEPWIVSPEKLYSRSKNTPFEKAHFQGRVLQTFVKGQSIFKLDQ”, with “not soluble”.
As for “MQCGLLKHRLLKFFSTEAIMTTNQRSIKAPQTVVVKLGTSVLTGGTLALDRAHMVELARQCAELKKQGHSVVIVTSGAIAAGREHLGYPALPNAISSKQLLAAVGQSRLIQVWESLFAIYGIKIGQMLLTRADLDDRERFLNARDTINALVENGIVPVVNENDAVATNEIKVGDNDNLSALVGILCGADKLLLLTDQKGLFTADPRKDPNAQLIKEVTTIDDTLRKIAGGSGTTLGTGGMATKLQAADIARRAGIEVIIAAGRAPNVIFDSLSDEPQGTRFLALEEALENRKRWILAGPAASGDIVIDDGAVKAVQTKGSSLLAKGVVRVQGQFARGEVVRVLDKQSHLIARGIAAYSNDELAQIAGKHSKEIIDILGYDHGSEVIHRDDMVVIQE”, the “soluble on expression in E. coli” value is “not soluble”.
Then “GMPHVHVSTDNSLLDIGLIHRTLSQDTDWAKDIPLALVQRAIDHSLCFGGFVDGRQVAFARVISDYATFAYLGDVFVLPEHRGRGYSKALMDAVMAHPDLQGLRRFSLATSDAHGLYARYGFTPPLFPQSLMERYVPGLYST”, with “soluble”.
For “MGSDKIHHHHHHMFKPQGLYDYICQQWQEEILPSLCDYIKIPNKSPHFDAKWEEHGYMEQAVNHIANWCKSHAPKGMTLEIVRLKNRTPLLFMEIPGQIDDTVLLYGHLDKQPEMSGWSDDLHPWKPVLKNGLLYGRGGADDGYSAYASLTAIRALEQQGLPYPRCILIIEACEESGSYDLPFYIELLKERIGKPSLVICLDSGAGNYEQLWMTTSLRGNLVGKLTVELINEGVHSGSASGIVADSFRVARQLISRIEDENTGEIKLPQLYCDIPDERIKQAKQCAEILGEQVYSEFPWIDSAKPVIQDKQQLILNRTWRPALTVTGADGFPAIADAGNVMRPVTSLKLSMRLPPLVDPEAASVAMEKALTQNPPYNAKVDFKIQNGGSKGWNAPLLSDWLAKAASEASMTYYDKPAAYMGEGGTIPFMSMLGEQFPKAQFMITGVLGPHSNAHGPNEFLHLDMVKKLTSCVSYVLYSFSQKK” the value was “not soluble”.
Then “MDCRLGCGACCIAPSISSPIPGMPKGKPAGVRCVQLNDDNLCKLFGKPERPKVCHDFKPCPVVCGKTNQEALDNITELEQLTLEHHHHHH”, with “soluble”; and “MEDLDFPICILKMNLQCCEDFPSRVKKLLRQVKGVYAITIDPVKGLILVCGTAEPSVLIKAVAKLGQSPQLYAYEKDPATAKTRFRTLLKRYATNKTQDKPSPPAPPVTATTPVETCPAGGETFRGFGYPGPTTMMQMPAFSLPPPRGLPGWLAPPTNPRLKYEEPKVTPRKPPAPYPFDYYENLGFPPSDSLFNYFSDDNPQPCSIM”, with “soluble”.
For the sequence “MGGSVDFERWFKGPAAIYGGIEYQTPYQPLRLKVEYDSNDYSQDFPVTRGNVDMTQHTPWNFGVLYGLGDWGDIKVSYQRGDTLTLGVNLTTNFNDMKAIWRDEPITAYDESSNQSIDEVDWQRVNQQLNGNAGYEDNRIYADDDSVTLVATQTKYRDSDEAHDRASRIFANHVPETISTYRIIETNQSMPVSETLIDAAQYKKVANNEYFDAKVADASQTDEVTYSPSEHSLKSDNLDRWDYSVSPTLSQSIGSAESFYLYAVGINTAGSVWLTDKVQASGSLYFNLFDNYDKFNYITPPDGTSVPRVRTMFRAYVHENPVRMNNLQLTWFEEYGAGFYSQMYAGYLESMFGGIGSEVMYRPLNSNWAFGIDATYIKQRTPGDWFGFYEQDHQEGGDYGRDYTVVSSGVTGFATAYYAPQWSFLKNTLLKVGVGQFLAGDKGTRIDFSKQFDSGVIAGAYASFTDLSAEEFGEGSYTKGFYISIPFDIMTVKPSKNRANFNWQPLTRDGGQMLNKQHDLYELTDERSPWFTRKGLLEHHHHHH”, the “soluble on expression in E. coli” value is reported as “not soluble”.
Then “MAHHHHHHMPSAPTCQHGSYHQCECYGHNTQLPNYRHDISNPRTLQGYYAPNGGCPCPATCGAEKHGLYCSDRGADASAMPKLTFRAADGPHTVHSASDVDGNGRDPATSIRTAFPNSRNYGGTVAQRGPTTLSTRAQLSASRKARAEAKREERAQDRKNFLRGVLRDEMLARMDAEGKRAALEADTGLMGTHHGEEYEANQRAAGSMRGGLDSTSRDPDTVLTLGEQYREIMDELEYVADQPVGSKYNIIRLHYLVEEEDRLNRLRLQERIRKTAEAMQSKK”, with “not soluble”.
For “MGSDKIHHHHHHMELGTPIAEGNTAKIYLVENRVVKVFKGHLPDTEAANEARKQKYAHSCGLSVPEIFDVTEVNGKQAIMMEYINGKTMGEILFENKEQAEYYMSISVGIQHQIHSKVADSLEPMSEKLSRQIKAAPGLSNNQRSALLKRLETLSIDNRLCHGDFHLYNLIKTNNKVTIIDWVDASVGDMCADICRTYLLYSQFSAELADMYLHLSCKKRGLSQADIFQWAPIIAGARLSETVISEKAERLIEIVKHHFPR” the value was “not soluble”.
For “MSLDVTNRIERALTEALNQADMAGCPPRLAAAMRSAVFPRGARVRPRLCHSVALACGEDNPGITEAAGAALELMHCASLIHDDLPCFDGADLRRGRPSVHKAFGEPLAVLAGDAMIVLAFQTIARAEGQADRLLKLTQIIGGAVGVPFGIVAGQAWECETEINLAHYHRSKTGALFVAATAMGAASAGSDPEPWRMVGEKIGEAYQVADDLRDAAADVEEIGKPVGQDVAHDRPSAVREMGIDGAIYHLKSLVRGAVEAMPECTNGNELRSLIMSEATRLVPAEGHHHHHH” the value was “soluble”; for “MISVFDIYKIGVGPSSSHTVGPMKAGKEFIDDLRAMGKLRDITKITVDVYGSLSLTGKGHHTDIAIIMGLAGNSPEKVDIDSIPGFIARVEETERLPVGMHCHTVSFPREGGMNFHKTNLELHENGMQIHAWIDDEKVYSKTYYSIGGGFIVDEENFGK”, “not soluble”; for “MVPAPEAIRQALQERLLARLDHPDPLYRDLLQDYPRRGGKMLRGLLTVYSALAHGAPLEAGLEAATALELFQNWVLVHDDIEDGSEERRGRPALHRLHPMPLALNAGDAMHAEMWGLLAEGLARGLFPPEVLLEFHEVVRRTAYGQHLDLLWTLGGTFDLRPEDYFRMVAHKAAYYTAVAPLRLGALLAGKTPPAAYEEGGLRLGTAFQIVDDVLNLEGGEAYGKERAGDLYEGKRTLILLRFLEEAPPEERARALALLALPREAKPEAEVGWLLERLLASRALAWAKAEAKRLQAEGLALLEAAFQDLPGKEALDHLRGLLAALVERRA”, “soluble”.
Consider “MEMTNAQRLILSNQYKMMTMLDPTNAERYRRLQTIIERGYGLQMRELDREFGELTEETCRTIIDIMEMYHALHVSWTNLKDTQAIDERRVTFLGFDAATEARYLGYVRFMVNIEGRYTHFDAGTHGFNAQTPMWEKYQRMLNVWHACPRQYHLSANEINQIINA”, for which the “soluble on expression in E. coli” value is on record as “not soluble”.
Regarding “MGSDKIHHHHHHMSETENNELTAGKQSKEPRSNQKLKLLYLAKILLNNTDANHDITLDEILNKLHAYDVTAARKSLYDDIAQLNDFGIKTQKTQYGRTVHYKVIGRAFELAELKLLVDSVAAAKFITEEKSNELIKKLESLTSRQEAATLQRQVYVAGRVKTMNSDIMKNVDAIHNAIANNSSLSFQYCRWNTKKELEVKHDGARYHVSPWGLLWNDGNYYLIGYDHDTQVKDIRHYRVDKMKNILIENKVREGREKLKKLDIASYGKSKFGMYNGEEIKAEILCKNSAIGVLIDRFGTDVTILKKDEAHSRVFVKVADNKLFIHWIMAMGDNFKIIGPENLVKEVHDELNRLAKQYELAD”, the “soluble on expression in E. coli” value is “not soluble”.
For “MIFRRSRPGTIGAVTLLCASLLAMPASSACTRFVYHGANDEVITARSMDWKVDVGTNLWAFPRGMQRSGQAGPNSIQWTSKHGSVIASGYDISTTDGMNEAGLVANVLWLAESSYPEYDGKTPGLTLAAWAQYVLDNFASVREAVDTLASEPFTVVTDNVPGEQRPATLHLSLSDASGDSAIIEYIDGKQVIHHNRAYQVMTNSPTFDKQLALNEYWKQIGGTVMLPGTNRASDRYARAYFYVNAIPKSEDPVEAIASVFSVIRNVSVPYGITTPDQPNISSTRWRTVADHKRKRYFFESALTPNIFWIDLGALDFSAESGKVMKLDLGPDQAHIYSGQANAHFEQAAPFKFLGL” the value was “not soluble”.
